Source: the RNAGym collection of RNA variant scans (doi:10.1093/molbev/msab373)

B1: Azoarcus group I ribozyme (parent)
chain: GUGCCUUGCGCCGGGAAACCACGCAAGGGAUGGUGUCAAAUUCGGCGAAACCUAAGCGCCCGCCCGGGCGUAUGGCAACGCCGAGCCAAGCUUCGGCGCCUGCGCCGAUGAAGGUGUAGAGACUAGACGGCACCCACCUAAGGCAAACGCUAUGGUGAAGGCAUAGUCCAGGGAGUGGCGAAAGUCACACAAACCGG

Variants of: B1
Assay: reverse-splicing fitness (ratio to wild type); higher = more active; in vitro selection; Mg2+ level not given
In short: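 An in vitro group I ribozyme library with randomized positions was T7-transcribed and gel-purified. In triplicate, 10 pmol RNA in EPPS pH 7.5 was reacted with 50 pmoles of a 30-nt RNA substrate for 1 h at 37 °C across several added MgCl2 levels (1–48 mM), then stopped with EDTA. Products were reverse transcribed from a substrate-complementary primer, PCR-amplified and sequenced (HiSeq 4000). Fitness is a variant's read proportion after selection over that before, normalised to wild type.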

Row | Variant | reverse-splicing fitness
1 | C82A A120C A145C C169U U176G | 0.00354
2 | C82A A120C A145C U176A | 0.0359
3 | C82A A120C A145C U176C | 0.0514
4 | C82A A120C A145C U176G | 0.00935
5 | C82A A120C A145G | 0.136
6 | C82A A120C A145G C150A | 0.0245
7 | C82A A120C A145G C150A C169A | 0.0111
8 | C82A A120C A145G C150A C169A U176A | 0.0224
9 | C82A A120C A145G C150A C169A U176C | 0.0248
10 | C82A A120C A145G C150A C169A U176G | 0.00876
11 | C82A A120C A145G C150A C169G | 0.00977
12 | C82A A120C A145G C150A C169G U176A | 0.0191
13 | C82A A120C A145G C150A C169G U176C | 0.0333
14 | C82A A120C A145G C150A C169G U176G | 0.00638
15 | C82A A120C A145G C150A C169U | 0.0123
16 | C82A A120C A145G C150A C169U U176A | 0.0177
17 | C82A A120C A145G C150A C169U U176C | 0.0163
18 | C82A A120C A145G C150A C169U U176G | 0.00765
19 | C82A A120C A145G C150A U176A | 0.0137
20 | C82A A120C A145G C150A U176C | 0.03
21 | C82A A120C A145G C150A U176G | 0.00982

Row | Variant | reverse-splicing fitness
22 | C82A A120C A145G C150G | 0.0213
23 | C82A A120C A145G C150G C169A | 0.01
24 | C82A A120C A145G C150G C169A U176A | 0.0141
25 | C82A A120C A145G C150G C169A U176C | 0.0128
26 | C82A A120C A145G C150G C169A U176G | 0.00933
27 | C82A A120C A145G C150G C169G | 0.00868
28 | C82A A120C A145G C150G C169G U176A | 0.013
29 | C82A A120C A145G C150G C169G U176C | 0.0127
30 | C82A A120C A145G C150G C169G U176G | 0.00719
31 | C82A A120C A145G C150G C169U | 0.0111
32 | C82A A120C A145G C150G C169U U176A | 0.0135
33 | C82A A120C A145G C150G C169U U176C | 0.015
34 | C82A A120C A145G C150G C169U U176G | 0.00779
35 | C82A A120C A145G C150G U176A | 0.00881
36 | C82A A120C A145G C150G U176C | 0.0148
37 | C82A A120C A145G C150G U176G | 0.00716
38 | C82A A120C A145G C150U | 0.107
39 | C82A A120C A145G C150U C169A | 0.0108
40 | C82A A120C A145G C150U C169A U176A | 0.0169
41 | C82A A120C A145G C150U C169A U176C | 0.0184
42 | C82A A120C A145G C150U C169A U176G | 0.00774

Row | Variant | reverse-splicing fitness
43 | C82A A120C A145G C150U C169G | 0.00896
44 | C82A A120C A145G C150U C169G U176A | 0.0144
45 | C82A A120C A145G C150U C169G U176C | 0.0202
46 | C82A A120C A145G C150U C169G U176G | 0.00573
47 | C82A A120C A145G C150U C169U | 0.019
48 | C82A A120C A145G C150U C169U U176A | 0.0157
49 | C82A A120C A145G C150U C169U U176C | 0.0136
50 | C82A A120C A145G C150U C169U U176G | 0.00621
51 | C82A A120C A145G C150U U176A | 0.0309
52 | C82A A120C A145G C150U U176C | 0.0551
53 | C82A A120C A145G C150U U176G | 0.0102
54 | C82A A120C A145G C169A | 0.00985
55 | C82A A120C A145G C169A U176A | 0.0242
56 | C82A A120C A145G C169A U176C | 0.034
57 | C82A A120C A145G C169A U176G | 0.00473
58 | C82A A120C A145G C169G | 0.0102
59 | C82A A120C A145G C169G U176A | 0.0237
60 | C82A A120C A145G C169G U176C | 0.0316
61 | C82A A120C A145G C169G U176G | 0.0041
62 | C82A A120C A145G C169U | 0.0214
63 | C82A A120C A145G C169U U176A | 0.0173

Row | Variant | reverse-splicing fitness
64 | C82A A120C A145G C169U U176C | 0.0162
65 | C82A A120C A145G C169U U176G | 0.00469
66 | C82A A120C A145G U176A | 0.0426
67 | C82A A120C A145G U176C | 0.0683
68 | C82A A120C A145G U176G | 0.00861
69 | C82A A120C A145U | 0.135
70 | C82A A120C A145U C150A | 0.0195
71 | C82A A120C A145U C150A C169A | 0.0105
72 | C82A A120C A145U C150A C169A U176A | 0.0198
73 | C82A A120C A145U C150A C169A U176C | 0.0156
74 | C82A A120C A145U C150A C169A U176G | 0.00601
75 | C82A A120C A145U C150A C169G | 0.00904
76 | C82A A120C A145U C150A C169G U176A | 0.0165
77 | C82A A120C A145U C150A C169G U176C | 0.0221
78 | C82A A120C A145U C150A C169G U176G | 0.00546
79 | C82A A120C A145U C150A C169U | 0.00955
80 | C82A A120C A145U C150A C169U U176A | 0.0151
81 | C82A A120C A145U C150A C169U U176C | 0.0126
82 | C82A A120C A145U C150A C169U U176G | 0.00487
83 | C82A A120C A145U C150A U176A | 0.0143
84 | C82A A120C A145U C150A U176C | 0.0233
